Measured values from US20190359693A1.

Target: hemagglutinin (HA) of influenza A/Env/MPJ193/09 (H3N?) (influenza A virus)
Assay: cell-based or functional assay

MD3606 (Fc fusion)
Average neutralization titers: 11.8 nM
